# B1: CER116: Tim4 binding and transmembrane domains, TRAF6 primary and TLR8 secondary signaling domains; SEQ ID NO:143 (protein)
# chain: MSKGLLLLWLVTELWWLYLTPAASEDTIIGFLGQPVTLPCHYLSWSQSRNSMCWGKGSCPNSKCNAELLRTDGTRIISRKSTKYTLLGKVQFGEVSLTISNTNRGDSGVYCCRIEVPGWFNDVKKNVRLELRRATTTKKPTTTTRPTTTPYVTTTTPELLPTTVMTTSVLPTTTPPQTLATTAFSTAVTTCPSTTPGSFSQETTKGSAFTTESETLPASNHSQRSMMTISTDIAVLRPTGSNPGILPSTSQLTTQKTTLTTSESLQKTTKSHQINSRQTILIIACCVGFVLMVLLFLAFLMSLLNCENSCGSSQSESDCCVAMASSCSAVTKDDSVGGTASTGNLSSSFMEEIQGYDVEFDPPLESKYECPICLMALREAVQTPCGHRFCKACIIKSIRDAGHKCPVDNEILLENQLFPDNFAKREILSLMVKCPNEGCLHKMELRHLEDHQAHCEFALMDCPQCQRPFQKFHINIHILKDCPRRQVSCDNCAASMAFEDKEIHDQNCPLANVICEYCNTILIREQMPNHYDLDCPTAPIPCTFSTFGCHEKMQRNHLARHLQENTQSHMRMLAHHLFYWDVWFIYNVCLAKVKGYRSLSTSQTFYDAYISYDTKDASVTDWVINELRYHLEESRDKNVLLCLEERDWDPGLAIIDNLMQSINQSKKTVFVLTKKYAKSWNFKTAFYLALQRLMDENMDVIIFILLEPVLQHSQYLRLRQRICKSSILQWPDNPKAEGLFWQTLRNVVLTENDSRYNNMYVDSIKQY
# modifications: CER116 protein
# B2: CER21−HPV16 E7 TCR: tandem expression cassette: CER21, T2A peptide, HPV16 E7 specific TCR; SEQ ID NO:166 (protein)
# chain: MSKGLLLLWLVTELWWLYLTPAASEDTIIGFLGQPVTLPCHYLSWSQSRNSMCWGKGSCPNSKCNAELLRTDGTRIISRKSTKYTLLGKVQFGEVSLTISNTNRGDSGVYCCRIEVPGWFNDVKKNVRLELRRATTTKKPTTTTRPTTTPYVTTTTPELLPTTVMTTSVLPTTTPPQTLATTAFSTAVTTCPSTTPGSFSQETTKGSAFTTESETLPASNHSQRSMMTISTDIAVLRPTGSNPGILPSTSQLTTQKTTLTTSESLQKTTKSHQINSRQTILIIACCVGFVLMVLLFLAFLHHLFYWDVWFIYNVCLAKVKGYRSLSTSQTFYDAYISYDTKDASVTDWVINELRYHLEESRDKNVLLCLEERDWDPGLAIIDNLMQSINQSKKTVFVLTKKYAKSWNFKTAFYLALQRLMDENMDVIIFILLEPVLQHSQYLRLRQRICKSSILQWPDNPKAEGLFWQTLRNVVLTENDSRYNNMYVDSIKQYLEGGGEGRGSLLTCGDVEENPGPMAPGLLCWALLCLLGAGLVDAGVTQSPTHLIKTRGQQVTLRCSPKSGHDTVSWYQQALGQGPQFIFQYYEEEERQRGNFPDRFSGHQFPNYSSELNVNALLLGDSALYLCASSLGWRGGRYNEQFFGPGTRLTVLEDLRNVTPPKVSLFEPSKAEIANKQKATLVCLARGFFPDHVELSWWVNGKEVHSGVCTDPQAYKESNYSYCLSSRLRVSATFWHNPRNHFRCQVQFHGLSEEDKWPEGSPKPVTQNISAEAWGRADCGITSASYQQGVLSATILYEILLGKATLYAVLVSTLVVMAMVKRKNSRAKRSGSGATNFSLLKQAGDVEENPGPMWGVFLLYVSMKMGGTTGQNIDQPTEMTATEGAIVQINCTYQTSGFNGLFWYQQHAGEAPTFLSYNVLDGLEEKGRFSSFLSRSKGYSYLLLKELQMKDSASYLCASVDGNNRLAFGKGNQVVVIPNIQNPEPAVYQLKDPRSQDSTLCLFTDFDSQINVPKTMESGTFITDKCVLDMKAMDSKSNGAIAWSNQTSFTCQDIFKETNATYPSSDVPCDATLTEKSFETDMNLNFQNLLVIVLRILLLKVAGFNLLMTLRLWSS
# modifications: CER21_T2A_HPV16_E7_TCR tandem cassette
# Columns and labels:
# [1] = tested on: pHrodo-red labeled, dexamethasone treated thymocytes; assay: Luminal degradation of engulfed thymocytes in CER-transduced Ba/F3 cells (time-lapse imaging); type: cell-based
# Experimental: Luminal degradation in CER-transduced cells was also evaluated following engulfment. Ba/F3 cells transduced with CER21 or CER116 were co-cultured with pHrodo-red labeled, dexamethasone treated thymocytes overnight and subsequently purified by FACS. Target cell destruction was visualized by time-lapse imaging and quantified over time (FIG. 85F). […] CER116-harboring Ba/F3 cells (top) catabolize target cells, allowing cells to return to homeostasis and resume immune responsiveness. The addition of a TRAF6 signaling domain to the CER construct promotes rapid destruction of engulfed material.
# [2] = tested on: CER-transduced CD4+ T cells; assay: Mass cytometry (CyTOF) with viSNE marker analysis of CER-transduced CD4+ T cells; type: cell-based, human
# Excerpt: CD4+ T cells were transduced with lentiviral vector comprising CER104, CER116, or CER117 nucleic acid. CER104 (SEQ ID NO:133) comprises a Tim4 binding domain, Tim4 transmembrane domain, and an engulfment signaling domain comprising a primary engulfment signaling domain comprising a TLR8 signaling domain and a secondary engulfment signaling domain comprising a DAP12 signaling domain. CER116 (SEQ ID NO:143) comprises a Tim4 binding domain, Tim4 transmembrane domain, and an engulfment signaling domain comprising a primary engulfment signaling domain comprising a TRAF6 signaling domain and a secondary engulfment signaling domain comprising a TLR8 signaling domain. CER117 (SEQ ID NO:144) comprises a Tim4 binding domain, Tim4 transmembrane domain, and an engulfment signaling domain comprising a primary engulfment signaling domain comprising a TLR8 signaling domain and a secondary engulfment signaling domain comprising a TRAF6 signaling domain. CER-transduced CD4+ T cells were co-cultured with E7 TCR-transduced CD8+ T cells and HPV+SCC152 target cells and interrogated by mass cytometry (CyTOF) with viSNE for visualization of high dimensional single cell data (FIGS. 82-84). Intact CER-transduced CD4+ T cells are shown in plots displaying tSNE1 (horizontal) and tSNE2 (vertical) axes. 27 intracellular markers were used for the viSNE analysis. Each dot represents a single cell. […] Red represents high expression and blue represents low expression for each marker. Populations of CD4^+ T cells were generated using a clustering algorithm from all 27 markers and overlaid onto the viSNE map. […] Populations of CD4^+ T cells were generated using a clustering algorithm from all 18 markers and overlaid onto the viSNE map (FIG. 83A). […] Color plots by 18 intracellular markers (CD28, CCR7, CD45RA, PD1, CD127, Perforin, CD49d, CD85j, CD38, CD27, Granzyme B, CD57, CD25, CD69, CD154, CD56, HLA-DR, and TCRγδ) show the phenotype across viSNE ‘islands’ (FIG. 83B). Red represents high expression and blue represents low expression for each marker. Highlighted region with arrow indicates cells expressing T cell activation marker CD69. Populations of CD4^+ T cells were generated using a clustering algorithm from 18 intracellular markers (CD28, CCR7, CD45RA, PD1, CD127, Perforin, CD49d, CD85j, CD38, CD27, Granzyme B, CD57, CD25, CD69, CD154, CD56, HLA-DR, and TCRγ6) and overlaid onto the viSNE map. […] Color plots by the 18 intracellular markers show the phenotype across viSNE ‘islands’ (FIG. 84B). Red represents high expression and blue represents low expression for each marker. Highlighted region with arrow indicates cells expressing the naïve T cell marker CD45RA.
# [3] = tested on: Racl; assay: Racl activation (PAK-PBD pull-down, immunoblot) in CER-transduced Ba/F3 cells; type: cell-based; settings: 2 hours co-culture with thymocytes, compared to CER21
# Excerpt: The Rho family of GTPases play essential roles in actin assembly during phagocytosis. Inhibition of either Rho GTPase Racl or CDC42 in macrophages results in a complete blockade of FcR-mediated phagocytosis due to defective actin assembly. To investigate induction of phagocytic signal transduction cascades, CER-expressing cells were interrogated for the activation of CDC42 and Racl. […] Ba/F3 cells were transduced with lentiviral vectors comprising CER21 nucleic acid, CER116 nucleic acid, or vector alone (mock). Target thymocyte cells were stained with pHrodo red. CER-transduced Ba/F3 cells were co-cultured with dexamethasone pre-treated thymocytes for 2 hours. The Racl inhibitor NSC23766 (Selleck Chem) was added during the co-culture in appropriate wells. Cells were then collected, solubilized in lysis buffer, and immunoprecipitation was performed on protein lysates to detect phospho-Racl using PAK-PBD agarose beads (Cytoskeleton, Inc.). Immunoprecipitates were eluted and 25 μg of protein was loaded onto SDS-PAGE gradient gels and then probed with monoclonal, mouse anti-Racl primary antibody (Cytoskeleton Inc.) overnight at 4° C., washed, and hybridized with secondary, anti-mouse antibody conjugated to horseradish peroxidase (Jackson Labs) (FIG. 85A). […] Protein gel bands were quantified using ImageJ image processing program, and the proportion of activated Racl was quantified (FIG. 85B). […]
# [4] = Engulfment of phosphatidylserine coated latex beads; type: cell-based
# [5] = tested on: SCC152 cells; assay: Cytokine response of tandem cassette transduced CD8+ T cells; type: cell-based, human; settings: CD8+ T cells co-cultured with SCC152 cells
# [6] = tested on: SCC152 cells; assay: Phagocytic activity of tandem expression cassette transduced CD8+ T cells; type: cell-based, human
# Experimental: Phagocytic activity of tandem expression cassette transduced CD8+ T cells was detected by co-culturing tandem expression cassette transduced CD8+ T cells with SCC152 cells for 6 hours at a 1:1 ratio. Phagocytic events were visualized and quantified using KEYENCE BZ-X710 fluorescence microscope, 20X objective and hybrid capture software.
# [7] = tested on: SCC152 cells
# Experimental: Peripheral blood was collected by venipuncture from a human donor, and human peripheral blood mononuclear cells (PBMCs) were isolated by density gradient centrifugation using lymphocyte separation media. CD8+ T cells were enriched from PBMCs using a commercially available isolation kit and activated with anti-CD3 and anti-CD28 in Complete Cell Growth Media. 50 μl of viral vector expressing the CER-HPV16 E7 TCR combination were diluted in 0.5 ml Complete Cell Growth Media and added to the CD8+ T cells. The transduced T cells were then centrifuged at 270×g rpm for 1 hour in a 32° C. pre-warmed centrifuge. The T cells were incubated for 24 hours at 37° C. T cells were expanded for another 72 hours in Complete Cell Growth Media, de-beaded, and allowed to expand x 5 days prior to being utilized for functional assays.
# Cytotoxic activity of tandem expression cassette transduced CD8+ T cells was detected using a caspase 3/7 apoptosis reagent (IncuCyte®) that couples the activated caspase 3/7 recognition motif with a red reagent that fluoresces upon cleavage. The fluorescent signal was measured using fluorescent microscopy. […] The caspase 3/7 apoptosis reagent was added to the co-culture, and cytotoxic activity was measured over time by measuring fluorescence (see, FIG. 40). […]
Molecule,time to near complete resolution of luminal contents [1] [h],luminal content degradation over time ([1]; FACS purified after overnight co-culture),memory formation after antigen encounter ([2]; CD4+ T cells),viSNE islands expressing T cell activation marker CD69 ([2]; CD4+ T cells after antigen encounter),viSNE islands expressing intracellular marker IFNγ ([2]; CD4+ T cells after co-culture with E7 TCR CD8+ T cells and SCC152 cells),viSNE islands expressing naïve T cell marker CD45RA within the CCR7+ population ([2]; compared to controls),Racl signaling (proportion of activated Racl) [3],incubation time after which phosphatidylserine coated beads could be visualized inside the T cells [4],"engulfment of phosphatidylserine coated beads ([4]; CD8+ T cells, data not shown)",antigen specific effector function (IFNγ response) [5],"phagocytosis of SCC152 cells ([6]; CD8+ T cells, 6 hours, 1:1 ratio)","dependence of engulfment of SCC152 cells on Racl ([6]; Racl inhibitor NSC23766 (50 μM), data not shown)","cytotoxic activity toward SCC152 cells (caspase 3/7) ([7]; CD8+ T cells, 1:1 ratio)",cytotoxic response relative to CD8+ T cells comprising HPV16 E7 TCR alone ([7]; by 6 hours)
B1,≤ 36,enhanced CER116 luminal content degradation over time,associated with memory formation after antigen encounter,enrichment of islands expressing the T cell activation marker CD69,enrichment of islands expressing the intracellular marker IFNγ,loss of islands expressing the naïve T cell marker CD45RA,enhanced Racl signaling,,,,,,,
B2,,,,,,,,about 30 minutes,engulfed streptavidin coated latex beads,exhibit antigen specific effector function as measured by IFNγ response,capable of phagocytosing SCC152 cells,Racl-dependent manner,exhibit cytotoxic activity toward SCC152 cells,exponentially higher
